Laboratory results from patent publication US20240316011A1, “ANTI-FIBROSIS PHARMACEUTICAL COMPOSITION AND APPLICATION THEREOF” (West China Second University Hospital, priority 2020, published 2024).

Columns and labels:
[1] = tested on: TIMP1; conditions: old mice after PNX, PH, or kidney I/R
Excerpt: Macrophages/monocytes were isolated from indicated mouse tissues via antibody-coated beads isolation after PNX, PH, or Kid I/R. Expression of genes was examined by quantitative PCR.

[2] = tested on: NRP1; experiment: HDAC and DNMT inhibitor treatment of old mice: NRP1 protein in isolated ECs (immunoblot); type: in vivo, mouse; conditions: old mice after PNX; 10 mg/kg VPA, 0.5 mg/kg AZA
Experimental: Injection of growth factor and treatment of HDAC and DNMT inhibitors. Three months old (young) mice were subjected to PNX, PH or kidney I/R and injected with 20 μg/kg […] or equal molar amounts of PDGF-BB, HGF, VEGF165, or TGFβ1 every three days. 3-mon Nrp1^+/+, Nrp1^iΔEC/iΔEC, or […] mice were also treated with […]. To test the regulation of […] and NRP1, old mice were treated with 10 mg/kg HDAC inhibitor VPA, 0.5 mg/kg DNMT1 inhibitor azacitidine (AZA), or combinatorial treatment of VPA and AZA (VPA+AZA). Expression of EPCR and NRP1 proteins in isolated lung, liver, and kidney ECs were tested by immunoblot, and […] amounts in homogenized organs was tested by ELISA.

[3] = tested on: Lung and liver fibroblast cells; experiment: TIMP1 treatment of lung fibroblast and liver stellate cell (immunoblot); type: cell-based, mouse
Experimental: TIMP1 treatment of lung fibroblast and liver stellate cell. Lung and liver fibroblast cells were from ScienceCell Research Laboratories and cultured as described previously (Reference 8). Lung and liver fibroblast cells were treated with 20 ng/ml TIMP1, 10 ng/ml TGFβ1, or 20 ng/ml TIMP1 and 10 ng/ml TGFβ1. To identify the role of β1 integrin in TIMP1-mediated fibroblast activation, p1 integrin was silenced in fibroblast cells by shRNA. After treatment, lung and liver fibroblast cells were retrieved for analysis of Smad2 phosphorylation and SMA protein expression by immunoblot. Smad2 phosphorylation and SMA protein expression were quantified by densitometry of immunoblot.

[4] = tested on: EPCR; experiment: Growth factor injection after PNX: EPCR / HIF2α in lung ECs; type: in vivo, mouse
Experimental: Mouse lung regeneration and repair models. To test mouse lung alveolar regeneration and repair, models of left lung PNX (Reference 19) and lung injury (Reference 7) were adapted. Mice were anesthetized with a cocktail of ketamine (100 mg/kg) and xylazine (10 mg/kg). PNX was carried out when left lung lobe was resected with a suture tied around the hilum. PCECs were purified from 20 months (designated as old) and 3 months old (designated as young) mice after PNX, and total RNA was isolated and subjected to transcriptome analysis as described. Intratracheal injection of 2 U/kg bleomycin was employed to induce lung injury. To block EPCR signaling, mice were intraperitoneally injected with EPCR neutralizing antibody 1560 at 1.5 mg/kg (Reference 46) after PNX and Bleo injection. Young Nrp1^iΔEC/iΔEC Hif2a^iΔEC/iΔEC, and control mice were also administered with 20 μg/kg mouse P1GF or same molar amounts of HGF and PDGF-BB (Peprotech) after PNX and PH. In addition, repeated intratracheal hydrochloric acid injection models were employed to induce lung injury (Reference 76). Orotracheal instillation was performed in anesthetized mice, and 20 μl of an iso-osmolar solution of 0.1 M hydrochloric acid (pH 1.0) was instilled. […] After recovery, mice were transferred to ventilated cages with access to food and water. […] At the described time points, pulmonary function and oxygen tension in arterial blood of treated mice were measured as previously described (Reference 7). To measure cell proliferation, 100 mg/kg 5-ethynyl-2′-deoxyuridine (EDU) was i.p. injected into mice one hour before sacrificing, and EDU incorporation was measured by EDU cell proliferation kit. Mice were i.p. supplemented with 1 ml PBS after all surgery procedures.
Injection of growth factor and treatment of HDAC and DNMT inhibitors. Three months old (young) mice were subjected to PNX, PH or kidney I/R and injected with 20 μg/kg P1GF or equal molar amounts of PDGF-BB, HGF, VEGF165, or TGFβ1 every three days. 3-mon Nrp1^+/+, Nrp1^iΔEC/iΔEC, or Hif2a^iΔEC/iΔEC mice were also treated with P1GF. To test the regulation of P1GF and NRP1, old mice were treated with 10 mg/kg HDAC inhibitor VPA, 0.5 mg/kg DNMT1 inhibitor azacitidine (AZA), or combinatorial treatment of VPA and AZA (VPA+AZA). Expression of EPCR and NRP1 proteins in isolated lung, liver, and kidney ECs were tested by immunoblot, and P1GF amounts in homogenized organs was tested by ELISA.

[5] = tested on: EPCR; experiment: Growth factor injection after PH: EPCR in liver ECs; type: in vivo, mouse; conditions: liver lacking endothelial Nrp1 or Hif2a
Experimental: Mouse lung regeneration and repair models. To test mouse lung alveolar regeneration and repair, models of left lung PNX (Reference 19) and lung injury (Reference 7) were adapted. Mice were anesthetized with a cocktail of ketamine (100 mg/kg) and xylazine (10 mg/kg). PNX was carried out when left lung lobe was resected with a suture tied around the hilum. PCECs were purified from 20 months (designated as old) and 3 months old (designated as young) mice after PNX, and total RNA was isolated and subjected to transcriptome analysis as described. Intratracheal injection of 2 U/kg bleomycin was employed to induce lung injury. To block EPCR signaling, mice were intraperitoneally injected with EPCR neutralizing antibody 1560 at 1.5 mg/kg (Reference 46) after PNX and Bleo injection. Young Nrp1^iΔEC/iΔEC Hif2a^iΔEC/iΔEC, and control mice were also administered with 20 μg/kg mouse P1GF or same molar amounts of HGF and PDGF-BB (Peprotech) after PNX and PH. […] At the described time points, pulmonary function and oxygen tension in arterial blood of treated mice were measured as previously described (Reference 7). To measure cell proliferation, 100 mg/kg 5-ethynyl-2′-deoxyuridine (EDU) was i.p. injected into mice one hour before sacrificing, and EDU incorporation was measured by EDU cell proliferation kit. […]

[6] = tested on: mouse liver fibrosis; experiment: CCl4 liver injury / fibrosis model; type: in vivo; conditions: Nrp1 iΔEC/iΔEC mice after chronic injury
Experimental: Animal Care and Mouse lines used.
Mouse liver regeneration and repair models. Mouse liver regeneration was induced by PH.
Tissue fibrosis determination. Lung, liver and kidney fibrotic responses were determined at the indicated time after injury. Tissues were homogenized in tissue lysis buffer. Immunoblot of Collagen I was performed with the obtained tissue lysates. Protein level of Collagen I was compared between different groups. Sirius red and hematoxylin stainings were performed on paraffin-embedded tissue sections to determine the tissue morphology and Collagen deposition and distribution (Reference 8). Sirius red-positive fibrotic parenchyma was determined from five random fields in each section and quantified. Hydroxyproline amount was quantified in the liver and lung to determine the extent of fibrosis.

[7] = tested on: kidney fibrosis; experiment: Folic acid kidney fibrosis model; type: in vivo, mouse; conditions: Nrp1 iΔEC/iΔEC mice after chronic injury
Experimental: Animal Care and Mouse lines used. […] This mouse line was crossed with floxed Nrp1 […] mice to generate […] and control mice. […] Mouse kidney regeneration and repair models. Mouse kidney I/R model was adopted from described (Reference 72). After mice were anesthetized, ischemia was induced by the retroperitoneal approach on both kidneys for 30 min. Sham operation was carried out with exposure of kidneys without inducing ischemia. To generate kidney fibrosis, mice were given a single i.p. injection of folic acid at the dose of 250 mg/kg, as previously described (Reference 74). […] At indicated time, serum creatinine concentration was measured by the picric acid method, and tissue morphology and fibrosis were analyzed by Sirius red and hematoxylin co-stainings. Tissue fibrosis determination. Lung, liver and kidney fibrotic responses were determined at the indicated time after injury. Tissues were homogenized in tissue lysis buffer. Immunoblot of Collagen I was performed with the obtained tissue lysates. Protein level of Collagen I was compared between different groups. […] Sirius red-positive fibrotic parenchyma was determined from five random fields in each section and quantified. Hydroxyproline amount was quantified in the liver and lung to determine the extent of fibrosis.

[8] = 20 ng/ml TIMP1, co-treatment with 10 ng/ml TGF-β1

## c1cc(CN2CCCNCCNCCCNCC2)ccc1CN1CCCNCCNCCCNCC1 [AMD3100]
[1]
  TIMP1 upregulation in the macrophages of old organs: attenuated

## CCCC(CCC)C(=O)O [VPA, valproic acid]
[2]
  expression of NRP1 in lung ECs: reduced

## TIMP1: recombinant tissue inhibitor of metalloproteinases 1 incubated with fibroblast cells
[3]; 20 ng/ml TIMP1
  phosphorylation of Smad2: augmented
  smooth muscle cell actin (SMA) protein expression: augmented
[3]; [8]
  phosphorylation of Smad2: further enhanced
  smooth muscle cell actin (SMA) protein expression: further enhanced

B1: P1GF: placenta growth factor, NRP1 ligand, injected into mice (protein, UniProt P49763 19-221, looked up)
Placenta growth factor: LPAVPPQQWALSAGNGSSEVEVVPFQEVWGRSYCRALERLVDVVSEYPSEVEHMFSPSCVSLLRCTGCCGDENLHCVPVETANVTMQLLKIRSGDRPSYVELTFSQHVRCECRHSPGRQSPDMPGDFRADAPSFLPPRRSLPMLFRMEWGCALTGSQSAVWPSSPVPEEIPRMHPGRNGKKQQRKPLREKMKPERCGDAVPRR
[4]; Nrp1 iΔEC/iΔEC mice after PNX
  effect of P1GF on EPCR / HIF2a: abrogated
[4]; young Hif2a iΔEC/iΔEC mice after PNX
  EPCR in lung ECs: did not suppress
[4]; young mice after PNX, 20 μg/kg
  HIF2a in lung ECs: enhanced
[4]; young mice after PNX, 20 μg/kg or equal molar amounts
  EPCR expression in lung ECs: suppressed
[5]
  EPCR upregulation in liver ECs: did not prohibit

B2: activated protein C (protein, UniProt P04070 200-461, looked up)
Vitamin K-dependent protein C …: DTEDQEDQVDPRLIDGKMTRRGDSPWQVVLLDSKKKLACGAVLIHPSWVLTAAHCMDESKKLLVRLGEYDLRRWEKWELDLDIKEVFVHPNYSKSTTDNDIALLHLAQPATLSQTIVPICLPDSGLAERELNQAGQETLVTGWGYHSSREKEAKRNRTFVLNFIKIPVVPHNECSEVMSNMVSENMLCAGILGDRQDACEGDSGGPMVASFHGTWFLVGLVSWGEGCGLLHNYGVYTKVSRYLDWIHGHIRDKEAPQKSWAP
modifications: Vitamin K-dependent protein C heavy chain activated two-chain form
[6]
  EPCR expression in liver ECs: enhanced
  HIF2A induction in liver ECs: suppressed
[7]
  EPCR expression in kidney ECs: enhanced
  HIF2A induction in kidney ECs: suppressed
